Experimental findings from patent publication US20140087995A1 (published 2014) are described below.

Numbered stars: 1 amine (or outer) side, 2 acyl side, 3 side chain; on linkers, the order of the positions; unused ones are H or OH. Bridge positions count the residues as written; N and C are the ends. Side chains are listed from the residue outwards. Ends that are not written are not given here. * marks the point of attachment. C20 diacid = O=C(O)CCCCCCCCCCCCCCCCCCC(=O)*; γGlu = O=C(O)[C@H](CCC(=O)[*:2])N[*:1]; AEEA = NCCOCCOCC(=O)O

The target in experiment [1] is T1, human amylin receptor (amylin 3(a) receptor: human calcitonin receptor with RAMP-3) (human, UniProt P30988 25-474; O60896 24-148).
T1 construct: whole, on cells; Assay used cell membranes of the Amylin 3(a)/CRE-luc BHK cells, not intact cells; also called hAmylin-R; hAmylinR
T1 sequence (looked up) 1: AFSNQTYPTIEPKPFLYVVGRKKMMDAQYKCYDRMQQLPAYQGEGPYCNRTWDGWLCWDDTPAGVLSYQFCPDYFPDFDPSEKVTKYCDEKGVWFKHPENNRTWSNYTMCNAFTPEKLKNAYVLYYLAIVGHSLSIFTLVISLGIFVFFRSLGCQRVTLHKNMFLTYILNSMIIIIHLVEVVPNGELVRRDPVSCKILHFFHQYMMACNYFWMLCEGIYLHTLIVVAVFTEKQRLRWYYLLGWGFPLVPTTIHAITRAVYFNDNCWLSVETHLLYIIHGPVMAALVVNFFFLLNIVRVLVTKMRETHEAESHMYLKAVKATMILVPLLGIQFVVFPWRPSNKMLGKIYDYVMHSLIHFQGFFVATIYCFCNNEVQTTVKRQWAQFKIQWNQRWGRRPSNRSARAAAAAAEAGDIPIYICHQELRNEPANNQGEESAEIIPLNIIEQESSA
T1 sequence (looked up) 2: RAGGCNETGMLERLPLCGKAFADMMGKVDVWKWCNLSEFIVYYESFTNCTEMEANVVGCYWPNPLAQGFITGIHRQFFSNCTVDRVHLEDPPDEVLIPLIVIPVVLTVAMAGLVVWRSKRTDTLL
Put plainly: SPA competition with 125I-rat amylin on membranes of BHK cells with human calcitonin receptor and RAMP-3 (Assay V). On the procedure: The binding assay was performed using scintillation proximity assay (SPA) beads (RPNQ0001) from PerkinElmer and cell membranes from the Amylin 3(a)/CRE-luc cells (as described in Assay (II)) were used. Membranes were prepared in the following way; the cells were rinsed with PBS and incubated with Versene for approximately 5 min before harvesting. The cells were flushed with PBS and the cell-suspension was centrifuged for 5 min at 1000 rpm. Cells were homogenized (ultrathurrax) in a buffer containing 20 mM Na-HEPES and 10 mM EDTA (pH 7.4) and centrifuged at 20.000 rpm for 15 min. The resulting pellet was resuspended, homogenized and centrifuged (20.000 rpm, 15 min) in a buffer containing 20 mM Na-HEPES and 0.1 mM EDTA (pH 7.4, buffer 2). The resulting pellet was resuspended in buffer 2 and protein concentration was measured (BCA protein Assay, Pierce). The homogenate was kept cold during the whole procedure. The membranes were kept at −80° C. until use. The assay was performed in a 384 well Optiplate (PerkinElmer) in a total volume of 40 ul. Membranes were mixed with SPA beads. Final concentration of membranes 35 ng/μL final and SPA beads was 0.05 mg/well. Test-compounds were dissolved in DMSO and further diluted in assay buffer (50 mM Hepes, pH 7.4, 1 mM CaCl2, 5 mM MgCl₂, 0.1% OA and 0.02% Tween20). […] The final mixture was incubated with shaking at 400 rpm for 120 min at 25° C. prior to centrifugation (1500 rpm, 10 min). Samples were analyzed on TopCounter™ (Packard). The IC₅₀ was calculated using (one site binding competition analysis) GraphPad Prism5 as a measure of receptor affinity.

For experiment [2], the target named is T2, human calcitonin receptor (human, UniProt P30988 25-474).
T2 construct: whole, on cells; Assay used cell membranes, not intact cells; also called hCTR; hCT
T2 sequence (looked up): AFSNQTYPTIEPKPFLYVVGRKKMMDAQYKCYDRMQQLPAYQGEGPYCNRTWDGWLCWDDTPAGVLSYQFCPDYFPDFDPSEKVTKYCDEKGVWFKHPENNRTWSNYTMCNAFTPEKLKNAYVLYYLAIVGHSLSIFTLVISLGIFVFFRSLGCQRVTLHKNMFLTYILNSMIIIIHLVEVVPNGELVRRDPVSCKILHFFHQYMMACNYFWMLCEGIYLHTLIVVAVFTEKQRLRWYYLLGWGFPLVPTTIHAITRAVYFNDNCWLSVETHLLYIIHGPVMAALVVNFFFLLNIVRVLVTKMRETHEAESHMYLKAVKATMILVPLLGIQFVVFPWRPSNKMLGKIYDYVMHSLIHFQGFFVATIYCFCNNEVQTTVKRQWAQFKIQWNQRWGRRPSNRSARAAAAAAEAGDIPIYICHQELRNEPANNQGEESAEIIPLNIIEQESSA
Put plainly: SPA competition with 125I-calcitonin on membranes of BHK cells with human calcitonin receptor (Assay VII). The method, then: Membranes were prepared in the following way; the cells were rinsed with PBS and incubated with Versene for approximately 5 min before harvesting. The cells were flushed with PBS and the cell-suspension was centrifuged for 5 min at 1000 rpm. Cells were homogenized (Ultrathurrax) in a buffer containing 20 mM Na-HEPES and 10 mM EDTA (pH 7.4) and centrifuged at 20.000 rpm for 15 min. The resulting pellet was resuspended, homogenized and centrifuged (20.000 rpm, 15 min) in a buffer containing 20 mM Na-HEPES and 0.1 mM EDTA (pH 7.4, buffer 2). The resulting pellet was resuspended in buffer 2 and protein concentration was measured (BCA protein Assay, Pierce). The homogenate was kept cold during the whole procedure. The membranes were kept at −80° C. until use. Assay was performed in a 384 well Optiplate (PerkinElmer) in a total volume of 40 ul. Membranes were mixed with SPA beads. Final concentration of membranes 35 ng/μL final and Final concentration of SPA beads was 0.05 mg/well. Test-compounds were dissolved in DMSO and further diluted in assay buffer (50 mM Hepes, pH 7.4, 1 mM CaCl2, 5 mM MgCl₂, 0.1% OA and 0.02% Tween20). […] The final mixture was incubated for 120 min with shaking at 400 rpm at 25° C. prior to centrifugation (1500 rpm, 10 min). Samples were analyzed on TopCounter™ (Packard). The […] was calculated using (one site binding competition analysis) GraphPad Prism5 as a measure of receptor affinity.

Experiment [3] has as its target T2, human calcitonin receptor. Put plainly: ratio IC50 hCTR / IC50 hAmylin-R (reference: human amylin receptor), SPA competition assays. The method, then:
The resulting pellet was resuspended, homogenized and centrifuged (20.000 rpm, 15 min) in a buffer containing 20 mM Na-HEPES and 0.1 mM EDTA (pH 7.4, buffer 2). The resulting pellet was resuspended in buffer 2 and protein concentration was measured (BCA protein Assay, Pierce). The homogenate was kept cold during the whole procedure. The membranes were kept at −80° C. until use. The assay was performed in a 384 well Optiplate (PerkinElmer) in a total volume of 40 ul. Membranes were mixed with SPA beads. Final concentration of membranes 35 ng/μL final and SPA beads was 0.05 mg/well. Test-compounds were dissolved in DMSO and further diluted in assay buffer (50 mM Hepes, pH 7.4, 1 mM CaCl2, 5 mM MgCl₂, 0.1% OA and 0.02% Tween20). […] The final mixture was incubated with shaking at 400 rpm for 120 min at 25° C. prior to centrifugation (1500 rpm, 10 min). Samples were analyzed on TopCounter™ (Packard). The IC₅₀ was calculated using (one site binding competition analysis) GraphPad Prism5 as a measure of receptor affinity.
Membranes were prepared in the following way; the cells were rinsed with PBS and incubated with Versene for approximately 5 min before harvesting. The cells were flushed with PBS and the cell-suspension was centrifuged for 5 min at 1000 rpm. Cells were homogenized (Ultrathurrax) in a buffer containing 20 mM Na-HEPES and 10 mM EDTA (pH 7.4) and centrifuged at 20.000 rpm for 15 min. The resulting pellet was resuspended, homogenized and centrifuged (20.000 rpm, 15 min) in a buffer containing 20 mM Na-HEPES and 0.1 mM EDTA (pH 7.4, buffer 2). The resulting pellet was resuspended in buffer 2 and protein concentration was measured (BCA protein Assay, Pierce). The homogenate was kept cold during the whole procedure. The membranes were kept at −80° C. until use. Assay was performed in a 384 well Optiplate (PerkinElmer) in a total volume of 40 ul. Membranes were mixed with SPA beads.

B1: N^ε1-[2-[2-[2-(19-carboxynonadecanoylamino)ethoxy]ethoxy]acetyl]-[His14,Arg17,Pro21,Pro27]-h-amylin (peptide)
peptide: K([AEEA-C20 diacid])CNTATCATQRLAHFLRHSSPNFGAIPSSTNVGSNTY-NH2
modifications: disulfide 2-7; N-terminus assumed
SMILES: CC[C@H](C)[C@H](NC(=O)[C@H](C)NC(=O)CNC(=O)[C@H](Cc1ccccc1)NC(=O)[C@H](CC(N)=O)NC(=O)[C@@H]1CCCN1C(=O)[C@H](CO)NC(=O)[C@H](CO)NC(=O)[C@H](Cc1c[nH]cn1)NC(=O)[C@H](CCCNC(=N)N)NC(=O)[C@H](CC(C)C)NC(=O)[C@H](Cc1ccccc1)NC(=O)[C@H](Cc1c[nH]cn1)NC(=O)[C@H](C)NC(=O)[C@H](CC(C)C)NC(=O)[C@H](CCCNC(=N)N)NC(=O)[C@H](CCC(N)=O)NC(=O)[C@@H](NC(=O)[C@H](C)NC(=O)[C@@H]1CSSC[C@H](NC(=O)[C@@H](N)CCCCNC(=O)COCCOCCNC(=O)CCCCCCCCCCCCCCCCCCC(=O)O)C(=O)N[C@@H](CC(N)=O)C(=O)N[C@@H]([C@@H](C)O)C(=O)N[C@@H](C)C(=O)N[C@@H]([C@@H](C)O)C(=O)N1)[C@@H](C)O)C(=O)N1CCC[C@H]1C(=O)N[C@@H](CO)C(=O)N[C@@H](CO)C(=O)N[C@H](C(=O)N[C@@H](CC(N)=O)C(=O)N[C@H](C(=O)NCC(=O)N[C@@H](CO)C(=O)N[C@@H](CC(N)=O)C(=O)N[C@H](C(=O)N[C@@H](Cc1ccc(O)cc1)C(N)=O)[C@@H](C)O)C(C)C)[C@@H](C)O
notes: also called compound 90
As to B1, the IC50 was 0.061 nM in experiment [1] and 2.57 nM in experiment [2]. In experiment [3], the “Ratio hCT/hAmylin binding” value is 42.2.

B2: N^ε1-[2-[2-[2-[[2-[2-[2-[[(4S)-4-carboxy-4-(19-carboxynonadecanoylamino)butanoyl]amino]ethoxy]ethoxy]acetyl]amino]ethoxy]ethoxy]acetyl]-[Arg17,Pro21,Pro27,His34 … (peptide)
peptide: K([AEEA-AEEA-γGlu-C20 diacid])CNTATCATQRLANFLRHSSPNFGAIPSSTNVGHNTY-NH2
modifications: disulfide 2-7; N-terminus assumed
SMILES: CC[C@H](C)[C@H](NC(=O)[C@H](C)NC(=O)CNC(=O)[C@H](Cc1ccccc1)NC(=O)[C@H](CC(N)=O)NC(=O)[C@@H]1CCCN1C(=O)[C@H](CO)NC(=O)[C@H](CO)NC(=O)[C@H](Cc1c[nH]cn1)NC(=O)[C@H](CCCNC(=N)N)NC(=O)[C@H](CC(C)C)NC(=O)[C@H](Cc1ccccc1)NC(=O)[C@H](CC(N)=O)NC(=O)[C@H](C)NC(=O)[C@H](CC(C)C)NC(=O)[C@H](CCCNC(=N)N)NC(=O)[C@H](CCC(N)=O)NC(=O)[C@@H](NC(=O)[C@H](C)NC(=O)[C@@H]1CSSC[C@H](NC(=O)[C@@H](N)CCCCNC(=O)COCCOCCNC(=O)COCCOCCNC(=O)CC[C@H](NC(=O)CCCCCCCCCCCCCCCCCCC(=O)O)C(=O)O)C(=O)N[C@@H](CC(N)=O)C(=O)N[C@@H]([C@@H](C)O)C(=O)N[C@@H](C)C(=O)N[C@@H]([C@@H](C)O)C(=O)N1)[C@@H](C)O)C(=O)N1CCC[C@H]1C(=O)N[C@@H](CO)C(=O)N[C@@H](CO)C(=O)N[C@H](C(=O)N[C@@H](CC(N)=O)C(=O)N[C@H](C(=O)NCC(=O)N[C@@H](Cc1c[nH]cn1)C(=O)N[C@@H](CC(N)=O)C(=O)N[C@H](C(=O)N[C@@H](Cc1ccc(O)cc1)C(N)=O)[C@@H](C)O)C(C)C)[C@@H](C)O
notes: also called compound 97
With B2, the half-inhibitory concentration (IC50) in experiment [1] stood at 0.568 nM; in experiment [2], 58.9 nM. In addition, the “Ratio hCT/hAmylin binding” value in experiment [3] is 104.

B3: N^ε1-[2-[2-[2-[[2-[2-[2-[[(4S)-4-carboxy-4-(19-carboxynonadecanoylamino)butanoyl]amino]ethoxy]ethoxy]acetyl]amino]ethoxy]ethoxy]acetyl]-[Arg17,Pro21,Pro27,Arg34 … (peptide)
peptide: K([AEEA-AEEA-γGlu-C20 diacid])CNTATCATQRLANFLRHSSPNFGAIPSSTNVGRNTY-NH2
modifications: disulfide 2-7; N-terminus assumed
SMILES: CC[C@H](C)[C@H](NC(=O)[C@H](C)NC(=O)CNC(=O)[C@H](Cc1ccccc1)NC(=O)[C@H](CC(N)=O)NC(=O)[C@@H]1CCCN1C(=O)[C@H](CO)NC(=O)[C@H](CO)NC(=O)[C@H](Cc1c[nH]cn1)NC(=O)[C@H](CCCNC(=N)N)NC(=O)[C@H](CC(C)C)NC(=O)[C@H](Cc1ccccc1)NC(=O)[C@H](CC(N)=O)NC(=O)[C@H](C)NC(=O)[C@H](CC(C)C)NC(=O)[C@H](CCCNC(=N)N)NC(=O)[C@H](CCC(N)=O)NC(=O)[C@@H](NC(=O)[C@H](C)NC(=O)[C@@H]1CSSC[C@H](NC(=O)[C@@H](N)CCCCNC(=O)COCCOCCNC(=O)COCCOCCNC(=O)CC[C@H](NC(=O)CCCCCCCCCCCCCCCCCCC(=O)O)C(=O)O)C(=O)N[C@@H](CC(N)=O)C(=O)N[C@@H]([C@@H](C)O)C(=O)N[C@@H](C)C(=O)N[C@@H]([C@@H](C)O)C(=O)N1)[C@@H](C)O)C(=O)N1CCC[C@H]1C(=O)N[C@@H](CO)C(=O)N[C@@H](CO)C(=O)N[C@H](C(=O)N[C@@H](CC(N)=O)C(=O)N[C@H](C(=O)NCC(=O)N[C@@H](CCCNC(=N)N)C(=O)N[C@@H](CC(N)=O)C(=O)N[C@H](C(=O)N[C@@H](Cc1ccc(O)cc1)C(N)=O)[C@@H](C)O)C(C)C)[C@@H](C)O
notes: also called compound 95
As to B3, the IC50 in experiment [1] is 0.967 nM; in experiment [2] it was 61.3 nM. For the same molecule, the “Ratio hCT/hAmylin binding” value in experiment [3] is 63.4.

One may read the IC50 as the point on the concentration scale where inhibition reaches its midpoint.
